molecular target: ACVR2B, Q13705; assay: Kd (SPR)
Sequence (Q13705 whole entry, looked up): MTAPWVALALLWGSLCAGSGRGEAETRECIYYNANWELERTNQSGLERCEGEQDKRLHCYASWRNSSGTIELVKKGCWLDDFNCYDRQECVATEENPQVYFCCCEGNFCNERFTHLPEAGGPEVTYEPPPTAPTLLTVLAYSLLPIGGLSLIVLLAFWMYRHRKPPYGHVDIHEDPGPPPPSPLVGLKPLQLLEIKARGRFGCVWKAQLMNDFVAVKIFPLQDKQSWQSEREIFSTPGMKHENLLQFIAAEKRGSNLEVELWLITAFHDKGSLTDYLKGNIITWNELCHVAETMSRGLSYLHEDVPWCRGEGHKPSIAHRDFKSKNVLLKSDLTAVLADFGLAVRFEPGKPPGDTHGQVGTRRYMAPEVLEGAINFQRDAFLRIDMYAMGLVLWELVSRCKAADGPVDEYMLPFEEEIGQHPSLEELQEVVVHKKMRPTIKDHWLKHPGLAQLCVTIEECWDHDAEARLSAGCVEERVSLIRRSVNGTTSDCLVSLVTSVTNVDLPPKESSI

Binder	Kd [nM]
unnamed (protein) chain 1: QVQLVQSGAEVKKPGASVKVSCKASGYTFTSSYINWVRQAPGQGLEWMGTINPVSGSTSYAQKFQGRVTMTRDTSISTAYMELSRLRSDDTAVYYCARSWGYFDVWGQGTLVTVSS chain 2: QSALTQPASVSGSPGQSITISCTGTSSDVGSYNYVNWYQQHPGKAPKLMIYGVSKRPSGVSNRFSGSKSGNTASLTISGLQAEDEADYYCGTFAGGSYYGVFGGGTKLTVL	106
unnamed (protein) chain 1: QVQLVQSGAEVKKPGASVKVSCKASGYTFTSSYINWVRQAPGQGLEWMGTINPVSGSTSYAQKFQGRVTMTRDTSISTAYMELSRLRSDDTAVYYCARGGYFDVWGQGTLVTVSS chain 2: QSALTQPASVSGSPGQSITISCTGTSSDVGSYNYVNWYQQHPGKAPKLMIYGVSKRPSGVSNRFSGSKSGNTASLTISGLQAEDEADYYCGTFAGGSYYGVFGGGTKLTVL	26.2
unnamed (protein) chain 1: QVQLVQSGAEVKKPGASVKVSCKASGYTFTSSYINWVRQAPGQGLEWMGTINPVSGSTSYAQKFQGRVTMTRDTSISTAYMELSRLRSDDTAVYYCARGGYDDYWGQGTLVTVSS chain 2: QSALTQPASVSGSPGQSITISCTGTSSDVGSYNYVNWYQQHPGKAPKLMIYGVSKRPSGVSNRFSGSKSGNTASLTISGLQAEDEADYYCGTFAGGSYYGVFGGGTKLTVL	42.6
unnamed (protein) chain 1: QVQLVQSGAEVKKPGASVKVSCKASGYTFTSSYINWVRQAPGQGLEWMGTINPVSGSTSYAQKFQGRVTMTRDTSISTAYMELSRLRSDDTAVYYCARGGYNDYWGQGTLVTVSS chain 2: QSALTQPASVSGSPGQSITISCTGTSSDVGSYNYVNWYQQHPGKAPKLMIYGVSKRPSGVSNRFSGSKSGNTASLTISGLQAEDEADYYCGTFAGGSYYGVFGGGTKLTVL	101
unnamed (protein) chain 1: QVQLVQSGAEVKKPGASVKVSCKASGYTFTSSYINWVRQAPGQGLEWMGTINPVSGSTSYAQKFQGRVTMTRDTSISTAYMELSRLRSDDTAVYYCARSGYADYWGQGTLVTVSS chain 2: QSALTQPASVSGSPGQSITISCTGTSSDVGSYNYVNWYQQHPGKAPKLMIYGVSKRPSGVSNRFSGSKSGNTASLTISGLQAEDEADYYCGTFAGGSYYGVFGGGTKLTVL	41.9
unnamed (protein) chain 1: QVQLVQSGAEVKKPGASVKVSCKASGYTFTSSYINWVRQAPGQGLEWMGTINPVSGSTSYAQKFQGRVTMTRDTSISTAYMELSRLRSDDTAVYYCARGGEFDYWGQGTLVTVSS chain 2: QSALTQPASVSGSPGQSITISCTGTSSDVGSYNYVNWYQQHPGKAPKLMIYGVSKRPSGVSNRFSGSKSGNTASLTISGLQAEDEADYYCGTFAGGSYYGVFGGGTKLTVL	704
unnamed (protein) chain 1: QVQLVQSGAEVKKPGASVKVSCKASGYTFTSSYINWVRQAPGQGLEWMGTINPVSGSTSYAQKFQGRVTMTRDTSISTAYMELSRLRSDDTAVYYCARQLTLDVWGQGTLVTVSS chain 2: QSALTQPASVSGSPGQSITISCTGTSSDVGSYNYVNWYQQHPGKAPKLMIYGVSKRPSGVSNRFSGSKSGNTASLTISGLQAEDEADYYCGTFAGGSYYGVFGGGTKLTVL	210
unnamed (protein) chain 1: QVQLVQSGAEVKKPGASVKVSCKASGYRFTSSGINWVRQAPGQGLEWMGTINPVTGNTSYAQKFQGRVTMTRDTSISTAYMELSRLRSDDTAVYYCARGGYFDYWGQGTLVTVSS chain 2: QSALTQPASVSGSPGQSITISCTGTSSDVGSYNYVNWYQQHPGKAPKLMIYGVSKRPSGVSNRFSGSKSGNTASLTISGLQAEDEADYYCGTFAGGSYYGVFGGGTKLTVL	292
unnamed (protein) chain 1: QVQLVQSGAEVKKPGASVKVSCKASGYTFTSSYINWVRQAPGQGLEWMGTINPVSGSTSYAQKFQGRVTMTRDTSISTAYMELSRLRSDDTAVYYCARLAIGDSYWGQGTLVTVSS chain 2: QSALTQPASVSGSPGQSITISCTGTSSDVGSYNYVNWYQQHPGKAPKLMIYGVSKRPSGVSNRFSGSKSGNTASLTISGLQAEDEADYYCGTFAGGSYYGVFGGGTKLTVL	111
unnamed (protein) chain 1: QVQLVQSGAEVKKPGASVKVSCKASGYTFTSSYINWVRQAPGQGLEWMGTINPVSGSTSYAQKFQGRVTMTRDTSISTAYMELSRLRSDDTAVYYCARGGDMDYWGQGTLVTVSS chain 2: QSALTQPASVSGSPGQSITISCTGTSSDVGSYNYVNWYQQHPGKAPKLMIYGVSKRPSGVSNRFSGSKSGNTASLTISGLQAEDEADYYCGTFAGGSYYGVFGGGTKLTVL	162
unnamed (protein) chain 1: QVQLVQSGAEVKKPGASVKVSCKASGYTFTSSYINWVRQAPGQGLEWMGTINPVSGSTSYAQKFQGRVTMTRDTSISTAYMELSRLRSDDTAVYYCARSGYFDYWGQGTLVTVSS chain 2: QSALTQPASVSGSPGQSITISCTGTSSDVGSYNYVNWYQQHPGKAPKLMIYGVSKRPSGVSNRFSGSKSGNTASLTISGLQAEDEADYYCGTFAGGSYYGVFGGGTKLTVL	9.19
unnamed (protein) chain 1: QVQLVQSGAEVKKPGASVKVSCKASGYTFTSSYINWVRQAPGQGLEWMGTINPVSGSTSYAQKFQGRVTMTRDTSISTAYMELSRLRSDDTAVYYCARGGYVDYWGQGTLVTVSS chain 2: QSALTQPASVSGSPGQSITISCTGTSSDVGSYNYVNWYQQHPGKAPKLMIYGVSKRPSGVSNRFSGSKSGNTASLTISGLQAEDEADYYCGTFAGGSYYGVFGGGTKLTVL	153
unnamed (protein) chain 1: QVQLVQSGAEVKKPGASVKVSCKASGYTFTSSYINWVRQAPGQGLEWMGTINPVSGSTSYAQKFQGRVTMTRDTSISTAYMELSRLRSDDTAVYYCARNGYADYWGQGTLVTVSS chain 2: QSALTQPASVSGSPGQSITISCTGTSSDVGSYNYVNWYQQHPGKAPKLMIYGVSKRPSGVSNRFSGSKSGNTASLTISGLQAEDEADYYCGTFAGGSYYGVFGGGTKLTVL	337
unnamed (protein) chain 1: QVQLVQSGAEVKKPGASVKVSCKASGYTFTSSYINWVRQAPGQGLEWMGTINPVSGSTSYAQKFQGRVTMTRDTSISTAYMELSRLRSDDTAVYYCARGGYADYWGQGTLVTVSS chain 2: QSALTQPASVSGSPGQSITISCTGTSSDVGSYNYVNWYQQHPGKAPKLMIYGVSKRPSGVSNRFSGSKSGNTASLTISGLQAEDEADYYCGTFAGGSYYGVFGGGTKLTVL	76.7
unnamed (protein) chain 1: QVQLVQSGAEVKKPGASVKVSCKASGYTFTSSHINWVRQAPGQGLEWMGTINPVTGNTSYAQKFQGRVTMTRDTSISTAYMELSRLRSDDTAVYYCARGGYFDYWGQGTLVTVSS chain 2: QSALTQPASVSGSPGQSITISCTGTSSDVGSYNYVNWYQQHPGKAPKLMIYGVSKRPSGVSNRFSGSKSGNTASLTISGLQAEDEADYYCGTFAGGSYYGVFGGGTKLTVL	162
unnamed (protein) chain 1: QVQLVQSGAEVKKPGASVKVSCKASGYTFTSSYINWVRQAPGQGLEWMGTINPVSGSTSYAQKFQGRVTMTRDTSISTAYMELSRLRSDDTAVYYCARSGYMDYWGQGTLVTVSS chain 2: QSALTQPASVSGSPGQSITISCTGTSSDVGSYNYVNWYQQHPGKAPKLMIYGVSKRPSGVSNRFSGSKSGNTASLTISGLQAEDEADYYCGTFAGGSYYGVFGGGTKLTVL	6.37
unnamed (protein) chain 1: QVQLVQSGAEVKKPGASVKVSCKASGYTFTSSYINWVRQAPGQGLEWMGTINPVSGSTSYAQKFQGRVTMTRDTSISTAYMELSRLRSDDTAVYYCARGGYTDYWGQGTLVTVSS chain 2: QSALTQPASVSGSPGQSITISCTGTSSDVGSYNYVNWYQQHPGKAPKLMIYGVSKRPSGVSNRFSGSKSGNTASLTISGLQAEDEADYYCGTFAGGSYYGVFGGGTKLTVL	101
unnamed (protein) chain 1: QVQLVQSGAEVKKPGASVKVSCKASGYTFTSTGINWVRQAPGQGLEWMGTINPVTGGTSYAQKFQGRVTMTRDTSISTAYMELSRLRSDDTAVYYCARGGYFDYWGQGTLVTVSS chain 2: QSALTQPASVSGSPGQSITISCTGTSSDVGSYNYVNWYQQHPGKAPKLMIYGVSKRPSGVSNRFSGSKSGNTASLTISGLQAEDEADYYCGTFAGGSYYGVFGGGTKLTVL	234
unnamed (protein) chain 1: QVQLVQSGAEVKKPGASVKVSCKASGYTFTSSYINWVRQAPGQGLEWMGTINPVSGSTSYAQKFQGRVTMTRDTSISTAYMELSRLRSDDTAVYYCARGGDFDYWGQGTLVTVSS chain 2: QSALTQPASVSGSPGQSITISCTGTSSDVGSYNYVNWYQQHPGKAPKLMIYGVSKRPSGVSNRFSGSKSGNTASLTISGLQAEDEADYYCGTFAGGSYYGVFGGGTKLTVL	123

Source: the FLAb antibody collection (doi:10.1101/2023.12.08.570889)
